Test results: the DeepSol protein solubility set

experiment: soluble on expression in E. coli; label from the status in PepcDB or PDB records

Sequence | soluble on expression in E. coli
MDVEKLNLDNIISRLLEVRGSKPGKNVQLTESEIKGLCQKSREIFLSQPILLELEAPLKICGDVHGQYYDLLRLFEYGGFPPESNYLFLGDYVDRGKQSLETICLLLAYKIKYPENFFLLRGNHECASINRIYGFYDECKRRYNIKLWKTFTDCFNCLPVAAIIDEKIFCCHGGLSPDLQSMEQIRRIMRPTDVPDQGLLCDLLWSDPDKDVTGWGENDRGVSFTFGPEVVAKFLHKHDLDLICRAHQVVEDGYEFFAKRQLVTLFSAPNYCGEFDNAGSMMTVDETLMCSFQILKPADKKKYPYGAGGVGSNRPVTPPRNAPAAQPKKGAKK | not soluble
MDVNTTYTKELSIIVPIYNEERELPELVRRLSAAAASITEDYELIFVNDGSRDGSMELLRSLCKGDDRFFYINLSRNFGHQIAVSAGLDHVRGKATVIIDGDLQDPPELIPELYAKYREGYEVVYAQRKHREGETWFKKATAKGFYRTMRKITSIDMPLDTGDFRLIDRKIVQCLREMPEQNKFLRGQIAWMGFRQTGVQFDRDERKYGQTNYPLRKMLALAIDGITGFSSRPLEWVAQ | not soluble
MDVRRLKVNELREELQRRGLDTRGLKAELAERLQAALEAEEPDDERELDADDEPGRPGHINEEVETEGGSELEGTAQPPPPGLQPHAEPGGYSGPDGHYAMDNITRQNQFYDTQVIKQENESGYERRPLEMEQQQAYRPEMKTEMKQGAPTSFLPPEASQLKPDRQQFQSRKRPYEENRGRGYFEHREDRRGRSPQPPAEEDEDDFDDTLVAIDTYNCDLHFKVARDRSSGYPLTIEGFAYLWSGARASYGVRRGRVCFEMKINEEISVKHLPSTEPDPHVVRIGWSLDSCSTQLGEEPFSYGYGGTGKKSTNSRFENYGDKFAENDVIGCFADFECGNDVELSFTKNGKWMGIAFRIQKEALGGQALYPHVLVKNCAVEFNFGQRAEPYCSVLPGFTFIQHLPLSERIRGTVGPKSKAECEILMMVGLPAAGKTTWAIKHAASNPSKKYNILGTNAIMDKMRVMGLRRQRNYAGRWDVLIQQATQCLNRLIQIAARKKRNYILDQTNVYGSAQRRKMRPFEGFQRKAIVICPTDEDLKDRTIKRTDEEGKDVPDHAVLEMKANFTLPDVGDFLDEVLFIELQREEADKLVRQYNEEGRKAGPPPEKRFDNRGGGGFRGRGGGGGFQRYENRGPPGGNRGGFQNRGGGSGGGGNYRGGFNRSGGGGYSQNRWGNNNRDNNNSNNRGSYNRAPQQQPPPQQPPPPQPPPQQPPPPPSYSPARNPPGASTYNKNSNIPGSSANTSTPTVSSYSPPQPSYSQPPYNQGGYSQGYTAPPPPPPPPPAYNYGSYGGYNPAPYTPPPPPTAQTYPQPSYNQYQQYAQQWNQYYQNQGQWPPYYGNYDYGSYSGNTQGGTSTQ | soluble
MDWIESVKSYIKVVEEGSFNAAAYQLNTSGSAISKRINWLEERVGVQLLTRTTRSVHQTEAGLLFYQRARLQLDQWQHLVDETRAINQTPAGLLKIGATLAVGSKFIIKYLDEFLATYPKIKVQLITTLPGQVPEHNVDVFISRELEQLNTFSYKATHLFEHHSGFFASKDYLDKYGTPNNINELKAHNMLIWGERPIKEIKLTNNKRVTLRGNFATTNPEALFHAAKRGMGILLTSQQMVIDDLQSGALVPILPEITTDHTRVNAYYPTLDYEHTRTQLFIKYLKTKLS | not soluble
MDWYEPGEDTYTLMDALEREGLEMKIVLDLGTSTGVITEQLRKRNTVVSTDLNIRALESHRGGNLVRADLLCSINQESVDVVVFNPPYVPDTDDPIIGGGYLGREVIDRFVDAVTVGMLYLLVIEANRPKEVLARLEERGYGTRILKVRKILGETVYIIKGEKS | not soluble
MDYLSFIAVAAHEFVHTWNVKQYRPKGIVPYDYQQENYSNLLWLVEGSTSYLQYQLLLRGNLMTTDEFFTALAKRITAHAHKPGKESQSVAQASFDAWISEGGDYGNNHSVNILEHHHHHH | soluble
MDYMERPKLGLIVREPYASLIVDGRKVWEIRRRKTRHRGPLGIVSGGRLIGQADLVGVEGPFSVEELLAHQEKHLAEEAFLRAYAKDEPLYAWVLENAFRYEKPLHVPRRPGRVMFVDLSEVRW | soluble
MDYRIRTSRDEDAALLPAIERSAGESFRLLPELAWIADAGVAGVDFHRRLIERGSHWLAEDADGQPVGFLAAERCADELHIAELSIAQAHQQQGLGRRLLERAVTYAHASHCRALTLTTFCDVPWNAPFYARLGFQRLTWQEAGERLRAILGHEQEIGFAADSRCAMRLVL | not soluble
MEAIDQLVGQWQKDGLSPSQVAEKFSKCVLYVTCEPCIMCASALSFLGIKEVYYGCPNDKFGGCGSILSLHLGSEEAQRGKGYKCRGGIMAEEAVSLFKCFYEQGNPNAPKPHRPVVQRERT | soluble
MEARPRVAGIVLAAGKSTRMGRPKQLLPFRGRTVLECVVDNALASRLHRVVVVLGHEAEAVMPLLGHRCVTTVVNPLYGEGQSSSLKAGLGAMTEETDAALFLLGDQPLVTADTINLLIAAFADFPSPIVIPTFEGHRGNPVLFSRETFPRIEALSGDRGARGLFREYGDDIRSIDVRTPAILFDLDTEEDYLRLLREFPAVLEHHHHHH | not soluble
MEDCRGDGSRREIERRRKYGRELQDLREGGEEFEYYFFVSNVFRTKLQKMPGADYSAVKGGGLKLKAGKKNLFKVGKEKKKKNKDDKEKIDPDTVENGGWRKIADEFDMKGGTNVAIEVASGAGSTRTYVAAMDNGKFTIGFPHPEGEGPNPEEIFALVKTPDDSKISLKTGFGRYVGVDSEYQLVAMAEAIGSREQFVLVFQEGKTAFQAVSSPLFLSTVPNKEGHIYVASRTATENEMVNIRTDAIQEGPVDWRSVEDRKNARECETAYVKMYQHSKVDLKNRHIAIDVKDKKGVKKAQADGSAHELLLDRRMKMKSDRYC | not soluble
MEDDAPMNLCNEQFEEIEDSPIDDNDNESFYNADGDVELEEEEVHETPKNFKNGGRFKTNMTNPKVNDLTTIEEKNEDLRSAASSRSASRPASVMSDKSFSSQFEFQSGGENAIEEYTNQVFADENKADLLFPETSKFMNGASPPKDKHHSWEPSIHHYDKQPPPDIQTNSPVFGNLNHRKNKLIPQARAKPGANDNEIVERDNDENVPTTSDKSAFITSPMNSTNHDEKTSTPKRPTNRKIGQYQGPNFDLSSIYVGSPQHQNTSISTGQQMPTSSYSHAHSETMMTNQTINESMVRRVLNGNNKNQDLFAALEEARKRRAAQPSKPDFRINTTRTRVPIKPTSARHSGNVVSSTSNDNTTAASSKDLTTSRKAMETFRQNASMADATNSNTASMTSILSTISTARTDISRSSRNHGGGFSNTSVSTVIPANNGNVSLSHGRDGRDSVSSVRTMSRASSTSTVYAGSTFSGVSKPLRIHAKRVAFGCVAVGETLRVEVEVENISDRQCLVRASTDSTTPVYQILDNKLTMVDPKKSIKFQVSFSPSSVGRYQVIMSIEVPAQNFIHKIPMWGNGGIAKFVPTSPDLQQTINQSEYAMCTSCAKRISFKISNSAGTRDGFAMIKVFDSAMRQLPDGCVAFFPAPGFIVKKKSDKRVDIRIDSSYIDLHDENNFRTSSSLSTASTTSSFQRRILPGAKFFVHVVWGEETMRTRLRLLEVRTGQHQLIDGHDFTSFQFSDEEVLRAVPVGFPAIKPEDRDLFAASYRSFFINFFTSTTEFRAATSRKKKEICSNDDSTLLETTAFRNQTFVNDVTIVPNTRFSNRK | not soluble
MEDLALRPKTLDEYIGQERLKQKLRVYLEAAKARKEPLEHLLLFGPPGLGKTTLAHVIAHELGVNLRVTSGPAIEKPGDLAAILANSLEEGDILFIDEIHRLSRQAEEHLYPAMEDFVMDIVIGQGPAARTIRLELPRFTLIGATTRPGLITAPLLSRFGIVEHLEYYTPEELAQGVMRDARLLGVRITEEAALEIGRRSRGTMRVAKRLFRRVRDFAQVAGEEVITRERALEALAALGLDELGLEKRDREILEVLILRFGGGPVGLATLATALSEDPGTLEEVHEPYLIRQGLLKRTPRGRVATELAYRHLGYPPPVGPLLEP | soluble
MEECAVSGGFDVSPQELRTFAGKLDVHRSTAEEIAGLVTEADVPERSWGVVGLVVKSECTRMLGDLNELFTALQEGLRSGSEKFTGAAQDYTDQEEAVKELLSGLQVRLDERQGGR | not soluble
MEEDKNTLDLHTEAREEDRVAKAVALFKEGYNCSQSVVTAFADLYGFTREQALHMSASFGGGIGRMRETCGAACGMFLLAGLEKCAIEGKDRESKAANYALVQELAEEFKKRNGALRCADLLGLSGKEPVVSTPEARTERYYAKRPCARMVEEAARIWSEHLEKQKK | not soluble
MEEEFSMFIMSMSNSMSSLWPAPIEMDSIDEGTENVANIASRWSTCCNIIRLHIEQMIGCEVDVAVAKSTDLGVSMTRGNSDSKLEPISTLLSTISKTIESNGEANAEFAIREIEKMNKSCETEYKIKKFHWFIDVEMFLNIKLALLDREFPPNLTVYVIGELKTLYDDYEAAKEVATNFERSSVNLRFLLCPADLKELNREIIAEKRQKMSEKEIICRFGSDKFKIKLFKKQKIGSHVTLIDSISFLGFLPEIELCRQGFLGSKRSNKLKMDITTDSKLGNKILFSLSQYLLNETKRPQTALFSFSSKPKLRGFCIMVAYESENDETSITLIQLKASLGKCLWKTLKFVNQSGEHSRPLPDDSYEQIAPIERKQLKRRLSRIERIASSVEEKRAQFEAFAREYDALDARDAFMKFTSTWQTDQGLLTAPTPFEDDNNNK | not soluble
MEEFTWRVGGPQGGGIETAATLFARAVGKGGWWVATKREYHSNIMGRHSYLDVRLARKPVQAFRERVDFLVALDGETLARHLGEVREGGVVLYDPKVLELTLHKLPMLDHRVAEDLAKRLGQADPSLKEVLQAYAEAGVQPLPYPFEAVADRIGEALGVPSLKARRTLNTIAVAASLHLLSYPLEPLLQALALQFRGEVLELNRKVAEAVYREEAPRLPFRLEVLGPAPGRIYLTGAQAAALGKLAGGLRFQTYYPISPATDESVFLEAHTHLPGADVAVVQTEDEIAAVNMAVGAALAGAKAATATSGPGFSLMAEGLGFAGMIEAPLVVTLYQRGGPSTGLPTRTEQGDLMFAIRGGHGEYPRLVLASGDILDAFLDAQKALAWAWRYQTVVVHLLDKFLASLAQSLPKEALKVLSLDGEKRLSPREGFGPYQRYAPGEDGLSPFIPIGTPGGFYWMTSDEHDPLGHITEDVELRELQMEKRMEKLELARKEIPLEDQYTLFRDGEVLVLGWGTVKGTLLEALDHLEGVGYLHLRLLWPFPRIAPLLEGKTLVTVEHNYSGQLADLVQQETLKRVHHRVVKYNGRPITLEEAVEALKAVREGRAPERLVLRKGV | soluble
MEEGSAIDYQRVPPLSGTHYASTVSAGFYEATPLLGSLVHTLEHGAVIVYYDPDEISPEARQSLREFSSVHTGTWRSVVAVPNPNDDPRATYVVTAWQHELTIDSYDAETVHAFLSEYLGRGPENPVRLEHHHHHH | soluble
MEEKDWEGSPLSENEAGLLCYDDEEYQFGGPAPKLQFRYLSEIGELQLLGDEDDVVISLKDLYGEIAEGKYGCCWENYEVYRYLKGLGYILGRHGVPWTTKYAVNTTPSDEDESLCAAEFFQDRDSVTKLLSDMHICDARPVFDVYLPNSQFKKSSPGEPSFVTCFSG | soluble
